Reference: the DeepSol protein solubility set

Experiment: soluble on expression in E. coli; label from the status in PepcDB or PDB records

Sequence | soluble on expression in E. coli
MKPSHQQQKQASAAKDEKKDIIPLSAEKADGAEGWLNNSTILYTASNPTKTELFPYRIFTGKAKKLYQTDGQIVDVQINAREQMILLQITHSQKTAVVLLNAEGETLYEKDYETYELEAAWNQYDPYQMMVTEFNENWDFHTYQVNAKKDESFLSPVQVPFIHWTSKNTFDYVKEGRDDKTGPLYTFDTASKTEQKLEDNVLFFDSFHQMSFTVKSASGGKGTYQFKTPQSTSPVTAKWPLQAKYTSLAPMEYDYDEAGSLFYTFKQSGDAYKLAAINVASGETKDLVSLREMEPIQISPNGKYALYGFHFEQIILLKSHETKQLIIDQKEMELEHHHHHH | soluble
MKPTAIFLMGPTASGKTDLAIQLRSQLPVEVISVDSALIYKGMDIGTAKPSKEELALAPHRLIDILDPSESYSAMNFRDDALREMADITAQGKIPLLVGGTMLYYKALIEGLSPLPSADENIRAELEQKAAQQGWAALHTELAKIDPISAARINPSDSQRINRALEVFYITGKSLTELTEEKGEALPYDFVQFAIAPQDRHVLHERIEQRFHKMIELGFQAEVEKLYARGDLNINLPSIRCVGYRQMWEYLQGDYAYEEMIFRGICATRQLAKRQLTWLRGWKTPIQWLDSLQPQQAKETVLRHLDSYQKGLEHHHHHH | soluble
MKPTFLEFRHLKTLLALKETGSVSLAAKRVYLTQSALSHQIKLIEEQFGLPLFERKSNPLRFTSAGERLIRLANEVMPKVIDAERDLARVKHGDAGQLRIAVECHTCFDWLMPAMDEFRQHWGLVELDIVSGFHTDPVGLLLSHRADWAIVSEIEHNDDVIFKPLFSYEMVGICSKNHSLAEKDIWEAEDFIDETWVTYPVPDDMLDLWRKVLKSKGINPTRRTTELTIAMIQLVASRRGIATIPYWAALPYLEKGYVVARKVTKEGLYSNLYAAIRKEDESLSYLEDFYQTVKSQSFSTLPGLSVLNL | not soluble
MKQLAISFCIILPLACFWVLNAEDAKEAPEIREANSTVFRQKRQFGCPSNCYSSCSSSSQCQRYSVASVCVQGCCCPGNNNLDTACSGGPAVAACLGGLCGQGFFCSSNNYCCRCQSGNSTGPCVNQVCPTGFMCNTNNYCCPLGSGGVLGSCVNGVCPTGYTCGAGNLCYLSSGK | not soluble
MKQSTIALALLPLLFTPVTKADIELTQSPSSLAVSAGEKVTMSCKSSQSLLNSGNQKNYLAWYQQKPGLPPKLLIYGASTRESGVPDRFTGSGSGTDFTLTISSVQAEDLAVYYCQNDHSYPLTFGAGTKLEIKRTVAAPSVFIFPPSDEQLKSGTASVVCLLNNFYPREAKVQWKVDNALQSGNSQESVTEQDSKDSTYSLSSTLTLSKADYEKHKVYACEVTHQGLSSPVTKSFNRGEC | soluble
MKQSTIALALLPLLFTPVTKAREVQLQQSGPELVKPGASVKMSCKASGYTFTSYVMHWVKQKPGQGLEWIGYINPYNDGTKYNEKFKGKATLTSDKSSSTAYMELSSLTSEDSAVYYCARGAYKRGYAMDYWGQGTSVTVSSRGGGGSGGGGSGGGGSDLVMSQSPSSLAVSAGEKVTMSCKSSQSLFNSRTRKNYLAWYQQKPGQSPKLLIYWASTRESGVPDRFTGSGSGTDFTLTISSVQAEDLAVYYCKQSYYHMYTFGSGTKLEIKHHHHHGLVPRGSGDPKADNK | soluble
MKQTPPLISFITICYNGLDDTCMLIESLRDTISSVSYEIIVVDNASRQDEASLIQERYPFVRTLRSEKNLGFSGGNNLGIQIAQGKYLFLINNDTYLTEDGLPALIERLESDPRIGAVSPKIRFAFPPQSIQFAGYTKLSRYTMRNKALGMGCPDDGTFDTPRPSAYLHGAALMLKREVIWKAGLMPEIYFLYYEELDWCTSMTRAGYQLWYEPRCTIFHKESQSTGRQSPLRTFYMMRNRMLYAWRNLPGMERCLAIAYQMLIVAPKDSLCFVLKGEPKLAKAVWHGVKGFWKLCLEHHHHHH | soluble
MKQYLELMQKVLDEGTQKNDRTGTGTLSIFGHQMRFNLQDGFPLVTTKRCHLRSIIHELLWFLQGDTNIAYLHENNVTIWDEWADENGDLGPVYGKQWRAWPTPDGRHIDQITTVLNQLKNDPDSRRIIVSAWNVGELDKMACAPSHAFFQFYVADGKLSCQLYQRSCDVFLGLPFNIASYALLVHMMAQQCDLEVGDFVWTGGDTHLYSNHMDQTHLQLSREPRPLPKLIIKRKPESIFDYRFEDFEIEGYDPHPGIKAPVAI | soluble
MKRISTLFLLATLGLAAGTAQAAQPDAGLTGCAAKRSAIENQLKIARDHGNSDQVGGLEEALRGVDNCTDASLRKEREQKVLDARHEVAQREKDLKKAEKKGDAEKINKRKDKLAESRKELQEAVDALDR | not soluble
MKRLIGLVIVALVLLAACGSNNDKKVTIGVASNDTKAWEKVKELAKKDDIDVEIKHFSDYNLPNKALNDGDIDMNAFQHFAFLDQYKKAHKGTKISALSTTVLAPLGIYSDKIKDVKKVKDGAKVVIPNDVSNQARALKLLEAAGLIKLKKDFGLAGTVKDITSNPKHLKITAVDAQQTARALSDVDIAVINNGVATKAGKDPKNDPIFLEKSNSDAVKPYINIVAVNDKDLDNKTYAKIVELYHSKEAQKALQEDVKDGEKPVNLSKDEIKAIETSLAK | soluble
MKRPHGYQITSLRADKYGGYYAANFVGNEILYFDVNNNVNALVKDGFSYLKSPYDVIEANNLLYVTLYSSDEIGVYDKVLGVKRKSIGNKGTKDGELLAPQYMAIDKRNYIYVSEWGNKRVSKFGLEGDFILHFGSRTSGYKGLLGPTGVTYLNENIYVADSLRNTIEVFDTSGNHLYSVFTSIEGIEGLSSDFVGNNVIVSSKDGVYKYSIAKKTITKILKADKMNSKISSSILDANNQMIVSDFNNAKVSVYKSDASLYDSLEHHHHHH | soluble
MKRREVLQAGMALGGLAGLGRALAQGGFTLTLVHTNDTHAHLEPVELTLSGEKTPVGGVARRVALFDRVWARAKNPLFLDAGDVFQGTLYFNQYRGLADRYFMHRLRYRAMALGNHEFDLGPGPLADFLKGARFKVVSANVDASREPRLKGLFAPYAVVVVGGERVGIIGLTTPDTREISNPGPTVAFLDPYESAQKAVYELLAKGVNKIVVLSHLGYGEDLKLARRLVGVQVIVGGHSHTLLGSFPHKELSPAGPYPTVVKNPEGKDVLVVQAWEWGKVVGLLEVTFDAKGELLAYKGEALLMTPEAAPEDFFAKEALLAYAQPVMALMQQVIAEAKVDLVGERAVVRRRESNLGNLITDGMLWKTRNAGTQIALQNGGGIRASIPKGPITVGKVYEVLPFGNTLVVMDLKGKEILAALENGVSQWENTAGRFLQVSGLRYAFDLSRPAGSRVVRVEVKTEKGYVPLDLEATYRVVVNNFIANGGDGFTVLKEAQGYRVDTGFSDAESFMDYLKELKVVEAGLEGRIEVLNEPKGERPAYFAYRVPGLVGV | soluble
MKRVFCPKCDGAITISRETLSQASPNGSLSLLCPHCCHQLRIRLVSKSDNSHNHKTEQEEQELAQELDRSRGYIVVLENIFGYRQEFALREGDNGIGRRNKDSVVDIAVLTGDPSMGRHHCILRVTPKKDGSFLYSIADDDSLVGTFVGGRLLDKKEWCRLNDGDVITMGATSAILYTSDHKDTESEEKN | not soluble
MKRVLSGIQPSGEIHIGNYLGAIKQWVAIGEKWGRDAFFCIVDYHALTNPLAYDPSTLAQRTFEAALVNIAAGLDPEKVTLFVQSHVPEHTELSWVFTTLTPLGDLTRMTQFKDKASKQETVWSGLLMYPVLQAADILIYKADTVPVGEDQVQHIELTREIARRFNHLFGETFPEPQALLNPEAPRVPGIDGKAKMSKSLGNTIGLLEPEESIWQKIQHLPDDPQRIRLSDPGDPERTILFTYLSYFAPKDLVEALKEEYRKAGVGTYVVKRILFDHLMEALRPIRERAEALKKDPDYVMDALLEGAKRARAVAQATMEEVREKVGLLLPRKRPVLR | soluble
MKRVLVAMSGGVDSSVAALLLKEAGYEVVGAMMRFWPDLPPPSLEAGKPRAWESCCTPDAAYEARRVADRLGIPFYLLDYREVFEEEIISPFLQDYAQGRTPNPCARCNTFVKFGALLKQARRLGLDYVATGHYVRKEGLALLRGLDPHKDQTYFLWGTPKEALPHLLFPVGGLTKPEVRALAEKAGLPTARRPESQNLCFVAGDLKGFLKERLKPRPGPLVDALTGEVVGEHEGASLYTLGQRKGLGLYKTHLERYVVGVDPERNVVYVGPKEACYFEGLEGEGLNLLAELPEEVEVQVRYRTPPVRAKVESLSPLRLRFAHPVFAVTPGQSAVFYRGERLLGGAVIRRGLYNLAGLEDPRALTFS | soluble
MKRVLVLGATGRTGNFVIKELSKYKSIQLIAGLRSQKDKERLPKINAAIETVVIDIADVCSLRKALTDSDIVVQAIRLRGDISENALIQLDQRIHQAFNPSRKTHLVTVGGAGALKLEANQRFWENEYFPRQTLPRGIAHARLRDYLEKSFFNHTWTYLIPPPVYVAEGARTGSYNRYSSAQKEDFFLSKSISYADFALAIGNAVMEEWQGVYLIAEKELEHHHHHH | not soluble
MKRVMFHAKIHRATVTQADLHYVGSVTVDQDLLDAAGILPFEQVDIYDITNGARLTTYALPGERGSGVIGINGAAAHLVKPGDLVILVAYGVFDEEEARNLKPTVVLVDERNRILEVRKG | soluble
MKSFALVRADDSDKVKIALHDLERYGHIQFSATPKCIEPNYADELLVSVMGVSLKSKCNSAALVELNNHAGAAISRLKKIHPPAHIIIISPRHKMFEELAGKFPKYPEFDRTFNHQKSPQGLDMIQEKGESSNA | not soluble
MKSIYITGYMGAGKTTIGKALSKELHMDVVDTDQKIEEKQGKVIRDIFAEEGEMAFREYESEMLCSLPVDNVIITTGGGIVEREENRKWMKENGTVVYLYCDPHVIAERLREDTTRPLFQKKDIDAFVTKFESRRAYYEEAHIHIDTTNKSVKQIMNELKEKINE | not soluble
MKSNHYMSIMEEFYMDKNLLEITGYDGEGYVPLIDYSHWRVAELRYCEELEVDKLKDMQKHDETDEVFVLLEGDFTLFLGGNGEHIGEIEAIKLEPLKLYNVKRGTYHTHTPEKNSTVLIVENVDTTDDNSPKEKLTLEQKKIIEKLYKEVNS | not soluble
MKSQFLLSVKEHMLTRYYANKTIESYLFWIKRFIVFHQFAHPSKLSEDDVIRFLSHLAIDEKVAVKTQALALNAISFLYRDFFKTPLSLDMRFQKSLTEKKLPVVLTRDEVRRFV | not soluble
MKSRIPVVLLACGSFNPITNMHLRMFEVARDHLHQTGMYQVIQGIISPVNDTYGKKDLAASHHRVAMARLALQTSDWIRVDPWESEQAQWMETVKVLRHHHSKLLRSPPQMEGPDHGKALFSTPAAVPELKLLCGADVLKTFQTPNLWKDAHIQEIVEKFGLVCVGRVSHDPKGYIAESPILRMHQHNIHLAKEPVQNEISATYIRRALGQGQSVKYLIPDAVITYIKDHGLYTKGSTWKGKSTQSTEGKTS | soluble
MKSSEEQALAGIELDDDAVMQYLLQNPDFFIRNARLVEQMHIPHPVRGTVSLVEWQLGRQRNQIGQLEEEITLLMEQAGLNEVLFNRLLQLQGNLAAASSLQDMLNRLQRWARDFGLAGANVRLFTDRWQIGAPSDFTHLGLSRHAFEPMRIQRLGNARHYLGSLNGPELLLLLPQAKQVGSVALSLLGKEGDLGVIVFSSRDIQHYQQGMGTVMLNQLSMLLPSLLERWIEPVLEHHHHHH | not soluble
